Drawing on article PMC3164674, this text covers binding signal (fold (mean fluorescence MCF-7/HepG2)) for one sequence.

The data set concerns the target MUC1 (mucin 1) on the surface of MCF-7 cells (human (MCF-7 breast cancer cell line)) (UniProt P15941). The data set is described as follows: flow cytometry on cells. The note with it: 300 nM DNA; 5 mM Mg2+; MUC1+ MCF-7 vs MUC1- HepG2; S2.2 with 48-nt DNA spacer at 3' end; 100 mM NaCl, 5 mM MgCl2, pH 7.2, 300 nM DNA, 30 min; temperature not stated. In general terms: A flow cytometer gives signals particle by particle.
Sequence of UniProt P15941 (P15941 whole entry): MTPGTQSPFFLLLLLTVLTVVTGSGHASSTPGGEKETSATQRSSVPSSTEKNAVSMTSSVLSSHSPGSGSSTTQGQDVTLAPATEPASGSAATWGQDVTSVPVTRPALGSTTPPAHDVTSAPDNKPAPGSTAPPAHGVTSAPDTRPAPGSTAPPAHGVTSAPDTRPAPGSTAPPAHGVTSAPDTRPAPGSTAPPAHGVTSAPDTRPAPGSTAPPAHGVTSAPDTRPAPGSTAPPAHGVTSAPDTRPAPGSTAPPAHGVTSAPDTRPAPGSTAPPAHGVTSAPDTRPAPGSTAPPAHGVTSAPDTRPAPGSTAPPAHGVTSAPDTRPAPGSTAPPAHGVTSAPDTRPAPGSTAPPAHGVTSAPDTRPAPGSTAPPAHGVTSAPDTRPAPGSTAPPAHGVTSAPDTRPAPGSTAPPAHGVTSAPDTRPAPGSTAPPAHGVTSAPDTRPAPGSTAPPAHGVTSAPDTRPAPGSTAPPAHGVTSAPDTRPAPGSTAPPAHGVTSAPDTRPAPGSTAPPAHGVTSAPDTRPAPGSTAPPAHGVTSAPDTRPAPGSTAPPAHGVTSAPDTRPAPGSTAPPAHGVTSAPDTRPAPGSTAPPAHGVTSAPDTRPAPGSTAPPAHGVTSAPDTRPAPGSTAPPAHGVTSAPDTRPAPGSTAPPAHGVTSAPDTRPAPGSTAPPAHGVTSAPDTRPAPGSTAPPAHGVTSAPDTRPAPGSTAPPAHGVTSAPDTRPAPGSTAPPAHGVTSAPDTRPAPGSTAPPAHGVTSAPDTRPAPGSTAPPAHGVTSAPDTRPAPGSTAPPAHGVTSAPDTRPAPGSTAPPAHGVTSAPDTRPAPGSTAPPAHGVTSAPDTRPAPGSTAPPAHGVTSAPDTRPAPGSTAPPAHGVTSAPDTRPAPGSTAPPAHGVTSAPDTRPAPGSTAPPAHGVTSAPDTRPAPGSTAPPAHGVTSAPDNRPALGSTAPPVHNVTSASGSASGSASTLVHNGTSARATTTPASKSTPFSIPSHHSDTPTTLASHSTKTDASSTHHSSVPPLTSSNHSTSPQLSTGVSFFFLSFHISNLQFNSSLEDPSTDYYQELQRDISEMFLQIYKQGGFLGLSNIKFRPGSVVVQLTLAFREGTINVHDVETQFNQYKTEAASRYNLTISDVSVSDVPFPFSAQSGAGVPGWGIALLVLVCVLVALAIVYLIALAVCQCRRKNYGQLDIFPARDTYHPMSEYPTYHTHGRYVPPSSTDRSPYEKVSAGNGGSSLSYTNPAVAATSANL

In the case of “GCAGTTGATCCTTTGGATACCCTGGTTCCCTTCCTTCTCTCTTCCTCTCTCCTTCTCTCTTCCTCTCTCCTTC [S2.2-spacer]”, the binding signal (fold (mean fluorescence MCF-7/HepG2)) is 3.5.
